Measured values reported in patent publication US20250121082A1 (SHANDONG BOAN BIOTECHNOLOGY, published 2025).
Residue numbers refer to the chain shown, from its start. Values belong to the binder of their own block, whether it stands above or below them.

How the values were obtained:
[1] = biological target: T1, Human CD228 protein (human, UniProt P08582 20-708, limits assumed); assay: Octet competition on His-chip CD228; competitor: CA13
T1 construct: Recombinant protein made in CHO cells, purified over a Ni column; The printed entry begins with the leader (MRGPSG...) and ends with ten His; also called hCD228; CD228-His protein
T1 sequence: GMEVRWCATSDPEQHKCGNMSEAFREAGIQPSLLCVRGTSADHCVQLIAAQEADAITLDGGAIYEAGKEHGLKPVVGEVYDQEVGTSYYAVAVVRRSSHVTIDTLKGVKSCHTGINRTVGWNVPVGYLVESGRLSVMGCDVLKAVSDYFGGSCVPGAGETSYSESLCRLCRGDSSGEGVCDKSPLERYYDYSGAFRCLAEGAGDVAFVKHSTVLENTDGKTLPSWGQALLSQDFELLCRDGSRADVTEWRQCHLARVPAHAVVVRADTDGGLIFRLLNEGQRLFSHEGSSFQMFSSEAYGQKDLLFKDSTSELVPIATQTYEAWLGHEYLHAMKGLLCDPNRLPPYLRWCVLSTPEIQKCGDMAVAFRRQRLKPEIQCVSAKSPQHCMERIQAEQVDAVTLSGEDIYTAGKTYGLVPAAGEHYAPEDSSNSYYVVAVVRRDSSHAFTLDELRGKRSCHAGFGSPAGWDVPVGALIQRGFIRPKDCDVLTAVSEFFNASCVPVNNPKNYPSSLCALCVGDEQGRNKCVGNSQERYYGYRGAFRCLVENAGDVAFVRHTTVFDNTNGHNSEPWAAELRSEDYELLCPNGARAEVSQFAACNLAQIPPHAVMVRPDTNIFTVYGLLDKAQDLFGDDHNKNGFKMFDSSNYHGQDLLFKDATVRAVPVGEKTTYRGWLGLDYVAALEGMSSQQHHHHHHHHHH
Description: (§1) CD228 proteins were immobilized on His chips at 10 μg/mL with a threshold of 0.5 nm. The first CD228 antibody (30 μg/mL) was immobilized, and the competitive binding of the second CD228 antibody (30 μg/mL) was analyzed. The Octet 8K system was used to analyze the response of antibody 2 and to determine whether antibody 1 and antibody 2 were in competition.
(§2) The final competition analysis was conducted using the following calculation method: 1—response value/blank value.

[2] = biological target: T1, Human CD228 protein; assay: Octet competition on His-chip CD228; competitor: CA67
Description: as §1

[3] = biological target: T2, Mouse CD228 protein (mouse, UniProt Q9R0R1 20-708, limits assumed); assay: SPR, BIAcore 8K; antibody on ProA chip, CD228 protein as analyte
T2 construct: Recombinant His-tagged protein from CHO cells
T2 chain: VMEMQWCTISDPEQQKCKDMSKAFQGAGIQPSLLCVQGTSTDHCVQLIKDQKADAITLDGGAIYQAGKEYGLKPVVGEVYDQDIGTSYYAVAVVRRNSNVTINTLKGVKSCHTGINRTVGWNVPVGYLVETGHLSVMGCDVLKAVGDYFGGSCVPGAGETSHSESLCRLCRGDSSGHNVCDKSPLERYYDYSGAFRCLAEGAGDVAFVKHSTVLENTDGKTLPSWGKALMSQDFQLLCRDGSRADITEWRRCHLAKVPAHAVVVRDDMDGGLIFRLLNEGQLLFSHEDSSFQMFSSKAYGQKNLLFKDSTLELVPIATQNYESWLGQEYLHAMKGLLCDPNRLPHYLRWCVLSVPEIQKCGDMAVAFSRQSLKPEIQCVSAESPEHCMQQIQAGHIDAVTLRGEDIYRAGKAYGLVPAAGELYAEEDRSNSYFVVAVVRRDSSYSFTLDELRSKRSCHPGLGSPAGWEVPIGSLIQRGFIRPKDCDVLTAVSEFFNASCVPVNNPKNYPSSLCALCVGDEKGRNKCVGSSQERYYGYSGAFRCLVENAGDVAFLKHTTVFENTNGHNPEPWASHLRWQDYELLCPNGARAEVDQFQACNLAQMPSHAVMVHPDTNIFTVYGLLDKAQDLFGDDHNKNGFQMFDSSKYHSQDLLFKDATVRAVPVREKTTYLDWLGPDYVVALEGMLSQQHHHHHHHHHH
Description: The binding kinetics of the antibodies to the CD228 proteins was measured using the BIAcore 8K system based on surface plasmon resonance (SRP). CD228 antibodies were immobilized on ProA chips at a concentration of 2 μg/mL, and the binding activity of the CD228 antibodies to human, monkey, and mouse CD228 proteins was analyzed. Human, monkey and mouse CD228 proteins were serially 2-fold diluted from 50 nM to 5 concentrations with an HBS-EP+ buffer. The binding kinetics of the CD228 proteins were analyzed by Biacore, and the affinity activity KD values were calculated by fitting.

[4] = biological target: T1, Human CD228 protein; assay: Octet competition on His-chip CD228; competitor: CA149
Description: as §1, §2

[5] = biological target: T1, Human CD228 protein; assay: Octet competition on His-chip CD228; competitor: CA518
Description: as §1

[6] = biological target: T1, Human CD228 protein; assay: Octet competition on His-chip CD228; competitor: CA185
Description: as §1, §2

[7] = biological target: T1, Human CD228 protein; assay: as above; remark: listed apart in the source
Description: as §1

[8] = biological target: T1, Human CD228 protein; assay: Octet, CD228 on His chip; PBST buffer in place of the first antibody
Description: as §1

[9] = biological target: T1, Human CD228 protein; assay: Octet competition on His-chip CD228; competitor: CA13; remark: listed apart in the source
Description: as §1

[10] = biological target: T1, Human CD228 protein; assay: Octet competition on His-chip CD228; competitor: BA352
Description: as §1

[11] = biological target: T1, Human CD228 protein; assay: Octet competition on His-chip CD228; competitor: hl49
Description: as §1

[12] = biological target: T1, Human CD228 protein; assay: as above; remark: listed apart in the source
Description: as §1, §2

B1: reference antibody hL49 (antibody, human IgG1, kappa, V domains shown)
VH: QVQLQESGPGLVKPSETLSLTCTVSGDSITSGYWNWIRQPPGKGLEYIGYISDSGITYYNPSLKSRVTISRDTSKNQYSLKLSSVTAADTAVYYCARRTLATYYAMDYWGQGTLVTVSS
VL: DFVMTQSPLSLPVTLGQPASISCRASQSLVHSDGNTYLHWYQQRPGQSPRLLIYRVSNRFSGVPDRFSGSGSGTDFTLKISRVEAEDVGVYYCSQSTHVPPTFGQGTKLEIKR
notes: also called H149; hL49 analogy
competition (1-response value/blank value) [1]: -6%
Octet response value [2]: 0.456
binding result [3]: no binding
competition (1-response value/blank value) [4]: -6%
Octet response value [5]: 0.456
competition (1-response value/blank value) [6]: -5%
Octet response value [7]: 0.432
Octet response value (blank value, PBST buffer) [8]: 0.347
Octet response value [9]: 0.418
Octet response value [10]: 0.177
Octet response value [11]: 0.0169
competition (1-response value/blank value) [12]: 95%

B4: CA13 (antibody, human IgG1, kappa, V domains shown)
VH: EVQLVESGGGVVQPGRSLRLSCAASGFTFSSYAMHWVRQAPGKGLEWVAVISYDGSNKYYADSVKGRFTISRDNSKNTLFLQMNSLRAEDTAVYYCARDVYHYGSRSPYYYGMDVWGQGTTVTVSS
VL: DIVMTQSPSSLSASVGDRVTITCRASQGISNYLAWFQQKPGKVPKLLIYAASTLQSGVPSRFSGSGSGTDFTLTISSLQPEDVATYYCQKYNSAPFTFGPGTKVDIKR
notes: Intact IgG1 from fully human antibody-transgenic mice
competition (1-response value/blank value) [1]: 100%
Octet response value [2]: -0.0021
binding result [3]: no binding
competition (1-response value/blank value) [4]: 101%
Octet response value [5]: -0.0081
competition (1-response value/blank value) [6]: 101%
Octet response value [7]: -0.0061
Octet response value (blank value, PBST buffer) [8]: 0.393
Octet response value [9]: -0.0011
Octet response value [10]: 0.427
Octet response value [11]: 0.353
competition (1-response value/blank value) [12]: -2%

B5: CA518 (antibody, human IgG1, kappa, V domains shown)
VH: B4 VH with Y60H, A97V
VL: B4 VL with V3Q, L11V, N31S, Y32W, F36Y, V43A, T53S
notes: Intact IgG1
competition (1-response value/blank value) [1]: 98%
Octet response value [2]: 0.0039
binding result [3]: no binding
competition (1-response value/blank value) [4]: 101%
Octet response value [5]: -0.0046
competition (1-response value/blank value) [6]: 101%
Octet response value [7]: -0.0043
Octet response value (blank value, PBST buffer) [8]: 0.442
Octet response value [9]: 0.006
Octet response value [10]: 0.415
Octet response value [11]: 0.281
competition (1-response value/blank value) [12]: 19%

B6: CA67 (antibody, human IgG1, kappa, V domains shown)
VH: B4 VH with F80Y
VL: B4 VL with V3Q, G28A, F36Y, Q55H, S56P
notes: Intact IgG1
competition (1-response value/blank value) [1]: 102%
Octet response value [2]: -0.007
binding result [3]: no binding
competition (1-response value/blank value) [4]: 103%
Octet response value [5]: -0.0133
competition (1-response value/blank value) [6]: 103%
Octet response value [7]: -0.0132
Octet response value (blank value, PBST buffer) [8]: 0.425
Octet response value [9]: -0.0065
Octet response value [10]: 0.423
Octet response value [11]: 0.33
competition (1-response value/blank value) [12]: 5%

B7: BA352 (antibody, human IgG1, kappa, V domains shown)
VH: EVQLVESGGGVVQPGRSLRLSCAASGFTFSSYAMHWVRQAPGKGLEWVAVISYDGSNKYYADSVKGRFTISRDNSKNTLYLQMNSLRAEDTAVYYCARGPYLAAAGTALTFDIWGQGTMVTVSS
VL: DIQMTQSPSAMSASVGDRVTITCRASQGINNYLAWFQQKPGKVPKRLIYAASSLQSGVPSRFSGSGSGTEFTLTISSLQPEDFATYYCLQHNSYPFTFGPGTKVDIKR
notes: Intact IgG1
competition (1-response value/blank value) [1]: -8%
Octet response value [2]: 0.443
binding result [3]: no binding
competition (1-response value/blank value) [4]: -2%
Octet response value [5]: 0.458
competition (1-response value/blank value) [6]: -3%
Octet response value [7]: 0.426
Octet response value (blank value, PBST buffer) [8]: 0.393
Octet response value [9]: 0.424
Octet response value [10]: 0.0217
Octet response value [11]: 0.0006
competition (1-response value/blank value) [12]: 100%

Now from value to binder:

competition (1-response value/blank value) [1]: 97%
Octet response value [2]: 0.0087
binding result [3]: no binding
competition (1-response value/blank value) [4]: 99%
Octet response value [5]: 0.0079
competition (1-response value/blank value) [6]: 98%
Octet response value [7]: 0.0102
Octet response value (blank value, PBST buffer) [8]: 0.409
Octet response value [9]: 0.0117
Octet response value [10]: 0.442
Octet response value [11]: 0.348
competition (1-response value/blank value) [12]: 0%
B2: CA149 (antibody, human IgG1, kappa, V domains shown)
VH: EVQLVESGGGVVQPGRSLRLSCAASGFTFSSYAMHWVRQAPGKGLEWVAVISFDGSNKYYTDSVKGRFTISRDNSKNTLYLQMNSLRAEDTAVYYCAREVPYYYGSGPFDYWGQGTLVTVSS
VL: EIVLTQSPATLSVSPGERATLSCRASQSVSSNLAWYQQKPGQAPRHLIDGASSRASGIPDRFSGSGSGTDFTLTISRLEPEDFAVYYCQQYGSSPPFTFGPGTKVDIKR
notes: Intact IgG1; also called CA149 antibody

competition (1-response value/blank value) [1]: 99%
Octet response value [2]: 0.0028
binding result [3]: no binding
competition (1-response value/blank value) [4]: 98%
Octet response value [5]: 0.0029
competition (1-response value/blank value) [6]: 99%
Octet response value [7]: 0.0055
Octet response value (blank value, PBST buffer) [8]: 0.411
Octet response value [9]: 0.0046
Octet response value [10]: 0.459
Octet response value [11]: 0.356
competition (1-response value/blank value) [12]: -3%
B3: CA185 (antibody, human IgG1, kappa, V domains shown)
VH: B2 VH with F53Y, T61A
VL: EIVLTQSPGTLSLSPGERATLSCRASQSVSSSSLAWYQQKPGQAPRHLIDGASSRASGIPDRFSGSGSGTDFTLTISRLEPEDFAVYYCQQYGSSYTFGQGTKVDIKR
notes: Intact IgG1
